Test results published in patent US20200054736A1.
Blank lines part the entries; values can stand above or below the substance they belong to.

Tests used:
[1] = target: meHER2-CAR, orientation Hc28ζ-Lc (meditope-enabled trastuzumab Fab-CAR); assay: flow cytometry of lentivirally transduced primary human T cells stained with protein L, middle trace meHer2 (Hc28 ζ-Lc). Untransduced control on the sheet: 13.16% MFI:1418.
[2] = target: meHER2-CAR, orientation Lc-Hc28ζ (meditope-enabled trastuzumab Fab-CAR); assay: flow cytometry of meHer2 (Lc-Hc28ζ) T cells pre-bound to meditope peptide and stained with protein L. Untransduced control, same quadrant: 0.63%.
[3] = target: meHER2-CAR, orientation Hc28ζ-Lc (meditope-enabled trastuzumab Fab-CAR); assay: flow cytometry of meHer2 (Hc28 ζ-Lc) T cells pre-bound to meditope peptide and stained with protein L. Untransduced control, same quadrant: 7.23%.
[4] = target: meHER2-CAR, orientation Lc-Hc28ζ (meditope-enabled trastuzumab Fab-CAR); assay: flow cytometry of meHer2 (Lc-Hc28ζ) T cells pre-bound to meditope peptide and stained with protein L. Untransduced control, same quadrant: 7.23%.
[5] = target: meHER2-CAR, orientation Hc28ζ-Lc (meditope-enabled trastuzumab Fab-CAR); assay: flow cytometry of meHer2 (Hc28 ζ-Lc) T cells pre-bound to meditope peptide and stained with protein L. Untransduced control, same quadrant: 0.63%.
[6] = target: original trastuzumab meFab; assay: Kinexa experiments, 25° C. (data not shown)
[7] = target: Fab of the meditope-Fab interaction (not specified); assay: estimated; method not stated
[8] = target: meHER2-CAR, orientation Lc-Hc28ζ (meditope-enabled trastuzumab Fab-CAR); assay: flow cytometry of meHer2 (Lc-Hc28ζ) T cells pre-bound to meditope peptide and stained with protein L. Untransduced control, same quadrant: 0.50%.
[9] = target: meHER2-CAR, orientation Hc28ζ-Lc (meditope-enabled trastuzumab Fab-CAR); assay: flow cytometry of meHer2 (Hc28 ζ-Lc) T cells pre-bound to meditope peptide and stained with protein L. Untransduced control, same quadrant: 0.50%.
[10] = target: meHER2-CAR, orientation Hc28ζ-Lc (meditope-enabled trastuzumab Fab-CAR); assay: flow cytometry of lentivirally transduced primary human T cells stained with Meditope-AF647, middle trace meHer2 (Hc28 ζ-Lc). Untransduced control on the sheet: 1.83% MFI:1306.
[11] = target: meHER2-CAR, orientation Lc-Hc28ζ (meditope-enabled trastuzumab Fab-CAR); assay: flow cytometry of lentivirally transduced primary human T cells stained with Meditope-AF647, top trace meHer2 (Lc-Hc28ζ). Untransduced control on the sheet: 1.83% MFI:1306.

% positive cells (marker gate) [1]: 51.8% | % cells Meditope+ Protein L+ (upper right quadrant) [2]: 43.1% | % cells Meditope- Protein L+ (lower right quadrant) [3]: 4.04% | % cells Meditope- Protein L+ (lower right quadrant) [4]: 16.1% | % cells Meditope+ Protein L+ (upper right quadrant) [5]: 42.1%
Substance: protein L

Kd [6]: 0.014 nM | fold over the affinity of the individual components [6]: 87000 fold | half-life of the complex [7]: > 80 days
Substance: meditope-protein L fusion (MPL)

% cells Meditope+ Protein L- (upper left quadrant) [8]: 2.09% | % cells Meditope+ Protein L- (upper left quadrant) [9]: 2.6% | % positive cells (marker gate) [10]: 54.4% | % positive cells (marker gate) [11]: 57.1%
Substance: Meditope-AF647 (peptide)
